Data taken from patent US20150104459A1.
Several values for one entry are separate records, joined by “and”; a condition that tells them apart may be missing. Equal values may be shown once.

Key:
[1] = target: M2 protein of influenza A/Hong Kong/483/97 (H5N1) (influenza A virus A/Hong Kong/483/97 (H5N1)); note: test concentration or dose not given here
[2] = target: M2 protein of influenza A/Puerto Rico/8/34 (H1N1), on virus particles (influenza A virus A/Puerto Rico/8/34 (H1N1)) (UniProt P06821)
[3] = target: recombinant soluble homotrimeric HA, A/Hong Kong/156/97 (H5N1) (influenza A virus A/Hong Kong/156/97 (H5N1)); assay: microarray, trimeric HA, transfection supernatant
[4] = target: recombinant soluble homotrimeric HA, A/Hong Kong/1073/99 (H9N2) (influenza A virus A/Hong Kong/1073/99 (H9N2)); assay: microarray, trimeric HA, transfection supernatant
[5] = target: recombinant soluble homotrimeric HA, A/Hong Kong/2108/03 (H9N2) (influenza A virus A/Hong Kong/2108/2003 (H9N2)); assay: microarray, trimeric HA, transfection supernatant
[6] = target: Hemagglutinin of influenza A/Wisconsin/67/05 (H3N2) on whole virions (Influenza A virus A/Wisconsin/67/2005(H3N2)); note: test concentration or dose not given here
[7] = target: Hemagglutinin of influenza A/Solomon Islands/3/06 (H1N1) on whole virions (Influenza A virus A/Solomon Islands/3/2006(H1N1)); note: test concentration or dose not given here
[8] = target: recombinant homotrimeric HA, A/Solomon Islands/3/06 H1N1 (Influenza A virus A/Solomon Islands/3/06 (H1N1)); assay: trimeric HA microarray; transfection supernatant set 5
[9] = target: recombinant homotrimeric HA, A/Wisconsin/67/05 H3N2 (Influenza A virus A/Wisconsin/67/05 (H3N2)); assay: as above
[10] = target: recombinant homotrimeric HA, A/Vietnam/1203/04 H5N1 (Influenza A virus A/Vietnam/1203/04 (H5N1)); assay: as above
[11] = target: recombinant homotrimeric HA, A/Egypt/3300-NAMRU3/08 H5N1 (Influenza A virus A/Egypt/3300-NAMRU3/08 (H5N1)); assay: as above
[12] = target: recombinant homotrimeric HA, A/South Carolina/1/18 H1N1 (Influenza A virus A/South Carolina/1/18 (H1N1)); assay: as above
[13] = target: recombinant homotrimeric HA, A/California/4/09 H1N1 (Influenza A virus A/California/4/09 (H1N1)); assay: as above
[14] = target: recombinant homotrimeric HA, A/swine/Ontario/01911-2/99 H4N6 (Influenza A virus A/swine/Ontario/01911-2/99 (H4N6)); assay: as above
[15] = target: recombinant homotrimeric HA, A/Japan/305/57 H2N2 (Influenza A virus A/Japan/305/57 (H2N2)); assay: as above
[16] = target: recombinant homotrimeric HA, A/Indonesia/5/05 H5N1 (Influenza A virus A/Indonesia/5/05 (H5N1)); assay: as above
[17] = target: recombinant soluble homotrimeric HA of A/Anhui/1/05 (H5N1) (Influenza A virus A/Anhui/1/2005 (H5N1)); assay: HA microarray, control mAb
[18] = target: recombinant soluble homotrimeric HA of A/Wisconsin/67/05 (H3N2) (Influenza A virus A/Wisconsin/67/2005 (H3N2)); assay: HA microarray, control mAb
[19] = target: recombinant soluble homotrimeric HA of A/Vietnam/1203/04 (H5N1) (Influenza A virus A/Vietnam/1203/2004 (H5N1)); assay: HA microarray, control mAb
[20] = target: recombinant soluble homotrimeric HA of A/Egypt/3300-NAMRU3/08 (H5N1) (Influenza A virus A/Egypt/3300-NAMRU3/2008 (H5N1)); assay: HA microarray, control mAb
[21] = target: recombinant soluble homotrimeric HA of A/Japan/305/57 (H2N2) (Influenza A virus A/Japan/305/1957 (H2N2)); assay: HA microarray, control mAb
[22] = target: recombinant soluble homotrimeric HA of A/California/4/09 (H1N1) (Influenza A virus A/California/04/2009 (H1N1)); assay: HA microarray, control mAb
[23] = target: recombinant soluble homotrimeric HA of A/duck/Yangzhou/02/2005 (H8N4) (Influenza A virus A/duck/Yangzhou/02/2005 (H8N4)); assay: HA microarray, control mAb
[24] = target: recombinant soluble homotrimeric HA of A/Solomon Islands/3/06 (H1N1) (Influenza A virus A/Solomon Islands/3/2006 (H1N1)); assay: HA microarray, control mAb
[25] = target: recombinant soluble homotrimeric HA of A/chicken/Vietnam/NCVD-016/08 (H5N1) (Influenza A virus A/chicken/Vietnam/NCVD-016/2008 (H5N1)); assay: HA microarray, control mAb
[26] = target: recombinant soluble homotrimeric HA of A/Indonesia/5/05 (H5N1) (Influenza A virus A/Indonesia/5/2005 (H5N1)); assay: HA microarray, control mAb
[27] = target: recombinant soluble homotrimeric HA of A/swine/Ontario/01911-2/99 (H4N6) (Influenza A virus A/Swine/Ontario/01911-2/99 (H4N6)); assay: HA microarray, control mAb
[28] = target: recombinant soluble homotrimeric HA of A/northern shoveler/California/HKWF115/2007 (H6N1) (Influenza A virus A/northern shoveler/California/HKWF115/2007 (H6N1)); assay: HA microarray, control mAb
[29] = target: recombinant soluble homotrimeric HA of A/Hong Kong/2108/03 (H9N2) (Influenza A virus A/Hong Kong/2108/2003 (H9N2)); assay: HA microarray, control mAb
[30] = target: recombinant soluble homotrimeric HA of A/Netherlands/219/03 (H7N7) (Influenza A virus A/Netherlands/219/03 (H7N7)); assay: HA microarray, control mAb
[31] = target: hemagglutinin (HA) of live influenza A/Solomon Islands/3/06 (H1N1) virus (influenza A virus A/Solomon Islands/3/2006 (H1N1)); assay: cell-based or functional assay
[32] = target: hemagglutinin (HA) of live influenza A/Wisconsin/67/05 (H3N2) virus (influenza A virus A/Wisconsin/67/2005 (H3N2)); assay: cell-based or functional assay
[33] = target: hemagglutinin (HA) of live influenza A/California/4/09 (H1N1) virus (influenza A virus A/California/04/2009 (H1N1)); assay: cell-based or functional assay
Throughout, for Virus ELISA OD A450: test concentration or dose not given here.

Sequence of TCN-032 (8I10) (antibody) (VH): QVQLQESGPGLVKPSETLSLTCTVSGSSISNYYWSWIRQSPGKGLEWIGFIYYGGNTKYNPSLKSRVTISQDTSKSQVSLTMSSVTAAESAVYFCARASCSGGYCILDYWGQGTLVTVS
Sequence of TCN-032 (8I10) (antibody) (VL): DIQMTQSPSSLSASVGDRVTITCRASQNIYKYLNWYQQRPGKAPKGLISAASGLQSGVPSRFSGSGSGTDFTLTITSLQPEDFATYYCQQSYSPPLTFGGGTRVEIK

TCN-032 (8I10) (antibody)
FACS M2-HK MFI [1]: 754 MFI and 1080 MFI

mAb 2N9 (antibody)
Virus ELISA OD A450 [2]: 0.15 OD A450 and 0.05 OD A450
FACS M2-HK MFI [1]: 11 MFI and 6 MFI

TCN-202 (2N9) (antibody)
Trimeric HA Binding RLU [3]: 945 RLU
Trimeric HA Binding RLU [4]: 57 RLU and 81 RLU
Trimeric HA Binding RLU [5]: 30 RLU and 22 RLU
OD450 [6]: 0.07 OD450 and 0.08 OD450
OD450 [7]: 0.07 OD450 and 0.08 OD450 and 0.1 OD450
Trimeric HA Binding: RLU [8]: 525 RLU
Trimeric HA Binding: RLU [9]: 581 RLU
Trimeric HA Binding: RLU [10]: 30000 RLU
Trimeric HA Binding: RLU [11]: 13900 RLU
Trimeric HA Binding: RLU [12]: 5330 RLU
Trimeric HA Binding: RLU [13]: 733 RLU
Trimeric HA Binding: RLU [14]: 2690 RLU
Trimeric HA Binding: RLU [15]: 1880 RLU
Trimeric HA Binding: RLU [16]: 1970 RLU
Trimeric HA Binding RLU [17]: 25 RLU
Trimeric HA Binding RLU [18]: 252 RLU
Trimeric HA Binding RLU [19]: 53 RLU
Trimeric HA Binding RLU [20]: 1280 RLU
Trimeric HA Binding RLU [21]: 85 RLU
Trimeric HA Binding RLU [22]: 39 RLU
Trimeric HA Binding RLU [23]: 196 RLU
Trimeric HA Binding RLU [24]: 46 RLU
Trimeric HA Binding RLU [25]: 69 RLU
Trimeric HA Binding RLU [26]: 24 RLU
Trimeric HA Binding RLU [27]: 75 RLU
Trimeric HA Binding RLU [28]: 105 RLU
Trimeric HA Binding RLU [29]: 50 RLU
Trimeric HA Binding RLU [30]: 348 RLU
% Neutralization [31]: 0% and 7%
% Neutralization [32]: 17.8% and 0%
% Neutralization [33]: 0%
